Experiments:
Type in all cases: in vivo, mouse
Male DBA/1O1aHsd mice = test: CIA model, early stage treatment from day 18
Excerpt: The aim of this study was to estimate the effect of C1ORF32-P8-V1-ECD-mFc (SEQ ID NO:42) on disease development in a type II Collagen induced arthritis (CIA) mouse model upon administration at early stage of disease; i.e., when specific and predictive markers for RA development are present in the serum, but before onset of clinical symptoms.
In the CIA model, arthritis is induced by immunization with type II collagen in CFA on day 1 which is followed by boosting with type II collagen in CFA on day 21. Antibodies against both CII and cyclic citrullinated peptide (CCPs) appear early after immunization, before joint swelling is observed.
To evaluate the effect of early stage treatment with C1ORF32-P8-V1-ECD-mFc (SEQ ID NO:42) on disease development treatment started on day 18 and was given IP injection, Q2D to mice from day 18 until day 32.
Male DBA/1O1aHsd mice weighing 16-25 grams (mean 22 g) on day 18 of the study were obtained from Harlan, Inc., Indianapolis, Ind. Mice (10/group) were anaesthetized with Isoflurane, shaved at the base of the tail, and injected intradermally with 150 μl of Freund's Complete Adjuvant (Sigma) containing bovine type II collagen (Elastin Products, Owensville, Mo.) (2 mg/me at the base of the tail on day 0 and again on day 21. On study day 18, mice were randomized by body weight into treatment groups. Treatment was initiated after enrollment and continued every other day (Q2D at 48 h intervals) through study day 33. On study days 23-34, onset of arthritis occurred. Mice were terminated on study day 34. Clinical scores were given for each of the paws (right front, left front, right rear, left rear) on arthritis days 18-34.
Mice were weighed on study days 18, 20, 22, 24, 26, 28, 30, 32 and 34 (prior to necropsy). […]

SJL/J mice [1] = test: PLP139-151/CFA R-EAE upon IL-10 or TGFb blockade, clinical score
Protocol: SJL/J mice were purchased from Harlan and primed with PLP139-151/CFA per the standard protocol, as described in 21.1.2 Methods, above). At disease remission the mice were split into 6 different treatment groups (n=5) as follows:
Mice were treated with Control Ig (mouse IgG2a) or C1ORF32 ECD-Fc (SEQ ID NO:42) at 100 ug/dose, each via an i.p. injection. This was followed with a second i.p. injection on the same day of either anti-IL-10 (rat IgG1), rat IgG1 (control Ab), or anti-TGFβ (mouse IgG1) at 100 ug/dose, each. All treatments were given 3×/wk for 2 wks, beginning on day +20 (onset of disease remission) and until day +31 post disease induction. All mice were followed for disease scores until day 44 post disease induction. On day 44, mice were sacrificed and analyzed for total T cell and Treg cell numbers in spleen and CNS.
At onset of disease remission (day +20 post disease induction) mice were allocated into 6 treatment groups (described above) and treated with either C1ORF32 ECD-Fc (SEQ ID NO:42) or control Ig (mIgG2a), and followed on the same day by treatment with anti-IL-10, anti-TGF-β, or rat IgG1 isotype control. All treatments were given at 100 ug/dose in 100 μl of PBS; via i.p. injection, at 3×/week for 2 weeks from onset of remission.
Mice were followed for disease and scored on a 0-5 scale per standard lab protocol as follows: 0, no abnormality; 1, limp tail; 2, limp tail and hind limb weakness; 3, hind limb paralysis; 4, hind limb paralysis and forelimb weakness; and 5, moribund. Dead mice were scored with a score of 5 on the day of death only, and were not further scored on the next days.

SJL/J mice [2] = test: Adoptive transfer R-EAE, clinical score
Protocol: Female SJL/J mice were primed with 50 ug of PLP139-151/CFA according to the standard laboratory protocol on day 0. On day 8 post disease induction, the inguinal lymph nodes were collected and the total lymph node cells were re-activated in culture in the presence of PLP139-151 for 3 days. At the end of culture, cells were collected and transferred into naive recipient SJL/J mice.
a. Mice were shaved (about a lin.xlin, square on the back between the hind flanks) and injected with CFA/PLP139-151 emulsion at 100 μl per mouse s.c., divided between three spots on the back and flanks. Peptide and final dose given per mouse: 50 μg of PLP139-151 peptide on day 0.
b. On day 8 post priming with PLP139-151/CFA, the draining inguinal lymph nodes were collected, and single cell suspensions were prepared. Total lymph node cells were cultured at a density of 8×10^6 cells per ml in the HL-1 medium plus PLP139-151 peptide (20 μg/ml) in T75 flasks.
c. After 3 days of culture, the PLP139-151 reactivated cells were collected and counted using an hemacytometer. The number of total viable cells and the number of blast cells was determined. The percentage of blast cells expected following this protocol is 20-30% of the total viable cells.
d. Unless otherwise specified, 3×10^6 cells were transferred to each recipient mouse by intravenous injection.
f. Mice were scored on the indicated days, on a 0-5 disease score scale per standard laboratory protocol: 0, no abnormality; 1, limp tail; 2, limp tail and hind limb weakness; 3, hind limb paralysis; 4, hind limb paralysis and forelimb weakness; and 5, moribund.

B1: C1ORF32 ECD-Fc (SEQ ID NO:42): fusion protein of human C1ORF32 ECD fused to mouse immunoglobulin Fc (human-mouse fusion protein) (protein)
chain: LQVTVPDKKKVAMLFQPTVLRCHFSTSSHQPAVVQWKFKSYCQDRMGESLGMSSTRAQSLSKRNLEWDPYLDCLDSRRTVRVVASKQGSTVTLGDFYRGREITIVHDADLQIGKLMWGDSGLYYCIITTPDDLEGKNEDSVELLVLGRTGLLADLLPSFAVEIMGSENLYFQGSGEPRGPTIKPCPPCKCPAPNLLGGPSVFIFPPKIKDVLMISLSPIVTCVVVDVSEDDPDVQISWFVNNVEVHTAQTQTHREDYNSTLRVVSALPIQHQDWMSGKEFKCKVNNKDLPAPIERTISKPKGSVRAPQVYVLPPPEEEMTKKQVTLTCMVTDFMPEDIYVEWTNNGKTELNYKNTEPVLDSDGSYFMYSKLRVEKKNWVERNSYSCSVVHEGLHNHHTTKSFSRTPGK
modifications: Fusion protein human C1ORF32-ECD fused to mouse IgG2a Fc
effect of the lower dose (Male DBA/1O1aHsd mice; 3.3 mg/kg IP Q2D): No effect
clinical arthritis score (Male DBA/1O1aHsd mice; 10 mg/kg IP Q2D from day 18, vs PBS or mIgG2a, did not reach significance): inhibition of clinical arthritis score
body weight loss (percent change from baseline) (Male DBA/1O1aHsd mice; 10 mg/kg, from study day 30 until termination, data not shown): significantly inhibited toward normal
disease progression (SJL/J mice [1]; 100 ug/dose i.p. 3x/wk 2 wks from day +20, followed by rIgG1, vs control Abs only): pronounced inhibition of disease progression
beneficial effect on disease with concomitant anti-IL-10 (SJL/J mice [1]; followed by anti-IL-10 100 ug/dose): abrogated the beneficial effect
beneficial effect on disease with concomitant anti-TGFβ (SJL/J mice [1]; followed by anti-TGFβ 100 ug/dose): abrogated the beneficial effect
mice found dead (SJL/J mice [1]; group C1ORF32 ECD-Fc and anti-TGFβ, day 28, n=5): 1
mice found dead (SJL/J mice [1]; group C1ORF32 ECD-Fc in combination with anti-IL-10, day 28, n=5): 2
clinical signs of the disease (mean clinical score) (SJL/J mice [2]; 100 ug/mouse i.p. 3x/wk for 2 wks from onset of disease remission, two studies): robust inhibition of clinical signs of the disease
disease induction (SJL/J mice [2]; study Cgen data, treatment from the time of cell transfer, 100 ug/dose i.p. 3x/wk for 2 wks): complete abolishment of disease induction
disease development (SJL/J mice [2]; study MYC48 FACS, treatment from the time of cell transfer, 100 ug/dose i.p. 3x/wk for 2 wks): abolished disease development

From patent US20170275344A1, “POLYPEPTIDES AND USES THEREOF AS A DRUG FOR TREATMENT OF AUTOIMMUNE DISORDERS” (Compugen Ltd., priority 2014, published 2017)
